Series [1] concerns the molecule itself. Put plainly: SEC.
Series [2] deals with the molecule itself. Put plainly: crystal structure.

The results in this text go back to article PMC4169324 (The FEBS journal, 2014).

B1: BcRsaM protein (product of bcam1869) from B. cenocepacia J2315, native (natural protein)
chain: SNAMTSPLLHPVPGPSPDGYVRLSEGALAALVLDHVASGLDPSLLAELRDNAIDARLAGYTEWHRTAGAGVAYVTVGWDWYLERATGTFVIAGGDVRSNVMAIDAKGADIGMLRTAAALAARLAALDWPAAVASALLGHNDAYHAGPTLQ
For the protein B1, in series [1], the stoichiometry N – broadly, the number of molecules, sites or subunits per partner or assembly – was 2.

B2: SeMet-labeled BcRsaM protein from B. cenocepacia J2315 (natural protein)
chain: SNAMTSPLLHPVPGPSPDGYVRLSEGALAALVLDHVASGLDPSLLAELRDNAIDARLAGYTEWHRTAGAGVAYVTVGWDWYLERATGTFVIAGGDVRSNVMAIDAKGADIGMLRTAAALAARLAALDWPAAVASALLGHNDAYHAGPTLQ
modifications: selenomethionine (SeMet-labeled; 70 mg/L SeMet in the culture for crystals X4)
Turning to B2, the binding result in series [2] is listed as “binds”.
